Data reported in the RNAGym collection of RNA variant scans (doi:10.7554/elife.90254).

B1: LINE1-full (parent)
chain: UACGUAGGUGGUUUUCCCCUGAUAGUGCUAAGGGGGCCUGGAAGUUUGGACUGGGCAGAGCUCAACACAGCGUGGCAAAGUGGCUGUGGCUAGACUGCCUCUCUGGAUUCCUCGUCACUCAGCAGGGCAUCUCUGAGAGAAAUGCC

Variants of: B1
Test: self-cleavage, relative activity (ratio to wild type); higher = more cleavage; in vitro, sequencing; the parent is a self-cleaving ribozyme

Compared with U26G U62A, U26G U62C is higher in self-cleavage: 0.03 for the first, 0.19 for the second.

First: U26G U73A
Second: U26G U73C
The self-cleavage of the first is higher: 1.61 for the first, 0.96 for the second.

Compared with U26G U81C, U26G U108A is higher in self-cleavage: 0.58 for the first, 1.03 for the second.

Going from U26G U108C to U26G U130C, the self-cleavage falls from 1.41 to 0.86.

Going from U26G U143A to G27A A30U, the self-cleavage rises from 0.68 to 1.58.

First: G27A A42G
Second: G27A A57U
The self-cleavage of the first is higher: 0.99 for the first, 0.04 for the second.

Going from G27A A78G to G27A A79G, the self-cleavage rises from 0.74 to 1.07.

Going from G27A A79U to G27A A94G, the self-cleavage falls from 1.36 to 0.23.

Compared with G27A A94U, G27A A121G is higher in self-cleavage: 0.18 for the first, 1.46 for the second.

Compared with G27A A138C, G27A A140G is higher in self-cleavage: 1.18 for the first, 1.38 for the second.

Compared with G27A G34A, G27A G36C is higher in self-cleavage: 0.64 for the first, 1.24 for the second.

Compared with G27A G53A, G27A G53U is higher in self-cleavage: 0.94 for the first, 1.14 for the second.

First: G27A U29C
Second: G27A U62C
The self-cleavage of the first is higher: 0.79 for the first, 0.08 for the second.

Compared with G27A U81C, G27A U91C is lower in self-cleavage: 0.8 for the first, 0.35 for the second.

First: G27A U96C
Second: G27A U102A
The self-cleavage of the first is lower: 0.1 for the first, 1.12 for the second.

Going from G27A U115C to G27C A67C, the self-cleavage falls from 1.54 to 0.1.

First: G27C G54U
Second: G27C U52A
The self-cleavage of the first is lower: 0.17 for the first, 0.91 for the second.

Going from G27C U100C to G27C U112C, the self-cleavage rises from 1.13 to 1.53.

Compared with G27U C61U, G27U G41U is higher in self-cleavage: 0.06 for the first, 1.26 for the second.

Going from G27U G82A to G27U U47C, the self-cleavage falls from 1.51 to 0.88.

Going from G27U U52C to G27U U73C, the self-cleavage rises from 0.36 to 1.51.

First: G27U U132A
Second: C28A
The self-cleavage of the first is higher: 1.23 for the first, 1.07 for the second.

Going from C28A A42G to C28A A57G, the self-cleavage rises from 0.82 to 1.53.

First: C28A A64G
Second: C28A A67G
The self-cleavage of the first is lower: 0.28 for the first, 0.55 for the second.

Going from C28A A77U to C28A A92G, the self-cleavage falls from 1.42 to 0.12.

Going from C28A A124G to C28A A129G, the self-cleavage rises from 0.56 to 1.5.

Going from C28A A141G to C28A G32A, the self-cleavage rises from 0.61 to 0.7.

Compared with C28A G36A, C28A U39A is lower in self-cleavage: 1.9 for the first, 1.54 for the second.

First: C28A U47C
Second: C28A U81C
The self-cleavage of the first is lower: 0.63 for the first, 0.89 for the second.

C28A U85C and C28A U96C are the same in self-cleavage: 0.17 for the first, 0.17 for the second.

First: C28A U108C
Second: C28G
The self-cleavage of the first is higher: 1.82 for the first, 0.98 for the second.

Going from C28G A65U to C28G A77G, the self-cleavage rises from 0 to 0.89.

Going from C28G C98A to C28G C128U, the self-cleavage rises from 0.12 to 1.8.

Compared with C28G U39C, C28G U100A is lower in self-cleavage: 0.82 for the first, 0.81 for the second.

Going from C28G U115C to C28U, the self-cleavage rises from 0.75 to 1.08.

Going from C28U A50G to C28U A59G, the self-cleavage falls from 1.09 to 0.09.

Going from C28U A77C to C28U A77G, the self-cleavage rises from 1.07 to 1.38.

Compared with C28U A78G, C28U A92U is lower in self-cleavage: 1 for the first, 0.43 for the second.

First: C28U A94G
Second: C28U A107G
The self-cleavage of the first is lower: 0.3 for the first, 0.88 for the second.

Going from C28U A117G to C28U A136G, the self-cleavage falls from 1.58 to 0.

Going from C28U A138U to C28U A141G, the self-cleavage rises from 0.9 to 1.53.

Going from C28U A142G to C28U C38U, the self-cleavage rises from 0.79 to 1.06.

First: C28U C63A
Second: C28U C101U
The self-cleavage of the first is lower: 0.02 for the first, 1.06 for the second.

Compared with C28U C123U, C28U G54A is lower in self-cleavage: 1.03 for the first, 0.65 for the second.

First: C28U U46C
Second: C28U U47G
The self-cleavage of the first is higher: 1.21 for the first, 0.7 for the second.

First: C28U U52C
Second: C28U U81A
The self-cleavage of the first is higher: 1.58 for the first, 1.44 for the second.

Compared with C28U U81C, C28U U115G is lower in self-cleavage: 1.39 for the first, 1.3 for the second.

First: U29A A30G
Second: U29A A42G
The self-cleavage of the first is lower: 0.86 for the first, 1.65 for the second.

Compared with U29A A43G, U29A A50G is lower in self-cleavage: 1.77 for the first, 0.51 for the second.

Compared with U29A A50U, U29A A57G is higher in self-cleavage: 0.89 for the first, 1.01 for the second.

First: U29A A59G
Second: U29A A64U
The self-cleavage of the first is lower: 0.16 for the first, 0.25 for the second.

Going from U29A A65U to U29A A67G, the self-cleavage rises from 0.23 to 0.67.

Going from U29A A78U to U29A A92G, the self-cleavage falls from 1.48 to 0.

Compared with U29A A107G, U29A A121C is lower in self-cleavage: 1.56 for the first, 0.84 for the second.

Compared with U29A A124G, U29A A129G is higher in self-cleavage: 0.91 for the first, 1.11 for the second.

U29A A136G and U29A A136U are the same in self-cleavage: 1.38 for the first, 1.38 for the second.

First: U29A A138G
Second: U29A A140G
The self-cleavage of the first is lower: 1.11 for the first, 1.3 for the second.

Compared with U29A C133U, U29A C145U is lower in self-cleavage: 0.85 for the first, 0.61 for the second.

Going from U29A G35U to U29A G41A, the self-cleavage rises from 1.16 to 1.7.

Going from U29A G74A to U29A G126A, the self-cleavage rises from 0.59 to 0.75.

Compared with U29A U39G, U29A U46C is lower in self-cleavage: 1.58 for the first, 1.21 for the second.

U29A U47C and U29A U62A are the same in self-cleavage: 0 for the first, 0 for the second.

Going from U29A U73A to U29A U81C, the self-cleavage falls from 1.55 to 0.92.

First: U29A U85A
Second: U29A U85C
The self-cleavage of the first is lower: 0.12 for the first, 0.29 for the second.

Going from U29A U87C to U29A U87G, the self-cleavage falls from 0.22 to 0.12.

Compared with U29A U96C, U29A U100A is higher in self-cleavage: 0.13 for the first, 0.91 for the second.

First: U29A U104A
Second: U29A U108C
The self-cleavage of the first is lower: 1.26 for the first, 2.61 for the second.

Compared with U29A U109C, U29A U115C is higher in self-cleavage: 1.25 for the first, 1.98 for the second.

First: U29A U134A
Second: U29C A30G
The self-cleavage of the first is higher: 1.19 for the first, 0.89 for the second.

Going from U29C A30U to U29C A31U, the self-cleavage falls from 1.23 to 1.

Going from U29C A43G to U29C A43U, the self-cleavage falls from 1.29 to 1.18.

Compared with U29C A50G, U29C A57G is higher in self-cleavage: 0.82 for the first, 0.98 for the second.

Going from U29C A57U to U29C A64U, the self-cleavage rises from 0.33 to 0.54.

Going from U29C A65U to U29C A69G, the self-cleavage rises from 0.42 to 0.53.

Compared with U29C A77G, U29C A78U is higher in self-cleavage: 1.92 for the first, 2.53 for the second.

First: U29C A79G
Second: U29C A79U
The self-cleavage of the first is lower: 1.16 for the first, 2.16 for the second.

Compared with U29C A92U, U29C A94U is lower in self-cleavage: 0.81 for the first, 0.56 for the second.

First: U29C A117U
Second: U29C A121G
The self-cleavage of the first is higher: 1.51 for the first, 1.43 for the second.

Going from U29C A136G to U29C A141G, the self-cleavage rises from 0.92 to 1.27.

Compared with U29C A142C, U29C A142G is higher in self-cleavage: 1.06 for the first, 1.38 for the second.

Compared with U29C A142U, U29C C56U is lower in self-cleavage: 0.86 for the first, 0.23 for the second.

First: U29C C61A
Second: U29C C68U
The self-cleavage of the first is lower: 0.03 for the first, 0.4 for the second.

First: U29C C71A
Second: U29C C98U
The self-cleavage of the first is lower: 0.32 for the first, 0.42 for the second.

Variant U29C C101G has a self-cleavage of 0.89.
